In publication PMC5099872 (Cell Research, 2016):

Columns and labels:
[1] = target: the molecule itself; experiment: crystal structure
[2] = target: the molecule itself; experiment: AUC

B1: Sre1-CTD ΔC-tail variant, residues 628-876, C644S/C672S (domain or fragment, Schizosaccharomyces pombe, UniProt Q9UUD1 628-876, looked up)
chain: QHSKSSVHAELRELPESTANLIENSHADDVFSPNMVERLWVLAKSTRDSAQMSDSIISSLSDVLVLSPLEVLASWYAADLLDALLMESLSRKVEISEIEEIISLCPKNSSIIRHALLAKLVLFPENTADSLNEVLAAYKNTLDLCSQDKRKQSSVLKINLSKLFTLHSCLSLALQRLGYGDVSKRMYQEIFVPDSDADITPLSFIISWTALNTFAPICTSPKENDVVEKMAMYVRTAIGTLKIQDLKLS
**Q.** With B1 as the protein, how does the “stoichiometry N” value [1] read?
**A.** The value was 2.

B2: Sre1-CTD WY mutant, residues 628-896, W702D/Y703D (domain or fragment, Schizosaccharomyces pombe, UniProt Q9UUD1 628-896, looked up)
chain: QHSKSSVHAELRELPECTANLIENSHADDVFSPNMVERLWVLAKCTRDSAQMSDSIISSLSDVLVLSPLEVLASDDAADLLDALLMESLSRKVEISEIEEIISLCPKNSSIIRHALLAKLVLFPENTADSLNEVLAAYKNTLDLCSQDKRKQSSVLKINLSKLFTLHSCLSLALQRLGYGDVSKRMYQEIFVPDSDADITPLSFIISWTALNTFAPICTSPKENDVVEKMAMYVRTAIGTLKIQDLKLSRKLINSCIDIGSRLQEDLGY
**Q.** B2 was tested. Which “stoichiometry N” value [2] did it give?
**A.** The value was 2.
